From patent US9289490B2, “Combinations and uses thereof” (MORPHOSYS AG, priority 2010, dated 2016)
Where “and” joins values, the source holds several entries; their conditions need not be identical. Equal entries are not always repeated.

Experiments:
AMO-1 cells = assay: ADCC with human PBMCs, flow cytometry (CalceinAM/PI); type: cell-based; conditions: Exp. 1-3
Protocol: For Tables 3b-c, “Theoretical Combination” represents the addition of the values of MOR202 alone and the values of LEN alone. The normalized data of Table 3b is calculated as follows. Therefore, the specific killing values of Table 3b are calculated by subtracting the values of the controls. Then the specific killing values are compared to the MOR202 group, which is set as 1.
The constant m determines the shape of the dose-effect curve. We used Excel Fit software to carry out a linear regression calculation to estimate the parameters m and D50.
The CI-isobol method provides a quantitative assessment of synergism between drugs. A combination index (CI) is estimated from dose-effect data of single and combined drug treatments. […] Formally, the combination index (CI) of a combined drug treatment is defined as CI=D1/Dx1+D2/Dx2
The data is analysed in the following way: Antagonistic(AB)/C<(A/C)×(B/C) Additive(AB)/C=(A/C)×(B/C) Synergistic(AB)/C>(A/C)×(B/C) where A is the treatment with LEN alone; B is the treatment with MOR202 alone; C is response to the treatment vehicle; AB is combination of treatments A and B.

NCI-H929 cells = assay: as above
Protocol: PBMC's were isolated by density gradient centrifugation of freshly isolated human blood. Isolated blood from different donors were layered on a defined volume of Biocoll (Biochrome AG; CAT No.:L6115; LOT No.:1050T) in a Falcon tube and centrifuged at 380 g. The PBMCs were isolated and supplemented with RPMI medium.
Cell suspensions were further incubated for 4 h at 37° C. To detect dead AMO-1 cells, cell suspensions were challenged with propidium iodide (PI) and subsequently analyzed in flow cytometry. Target cells were separated via gating of CalceinAM positive cell populations, and cells killed via ADCC were quantified.
Single and combination doses of 5 μM LEN and 15 μg/ml of MOR03207 and 0.2 or 0.07 μg/ml MOR202 were used.
Single and combination doses of 5 μM LEN and 15 μg/ml of MOR03207 and 0.2* or 0.07 μg/m MOR202 were used.

B1: MOR03207: binds lysosyme, and is used as isotype control, as it is IgG1 (SEQ ID NO: 8, 9) (antibody, V domains shown)
VH: QVQLQQSGPGLVKPSQTLSLTCAISGDSVSSNSAAWSWIRQSPGRGLEWLGRIYYRSKWYNDYAVSVKSRITINPDTSKNQFSLQLNSVTPEDTAVYYCARLDHRYHEDTVYPGMDVWGQGTLVTVSS
VL: DIELTQPPSVSVAPGQTARISCSGDNLPAYTVTWYQQKPGQAPVLVIYDDSDRPSGIPERFSGSNSGNTATLTISGTQAEDEADYYCASWDPSSGVVFGGGTKLTVLGQ
modifications: /mol_type=“protein” /note=“variable heavy chain” /organism=“synthetic construct”; /mol_type=“protein” /note=“variable light chain” /organism=“synthetic construct”
- % dead cells, MOR03207 15 μg/ml + DMSO (Table 4a) (AMO-1 cells; control group of the effector-only experiments): 15.77 % dead cells and 15.97 % dead cells and 11.45 % dead cells
- % dead cells (raw data, Table 4a) (AMO-1 cells; only PBMCs (effector cells) treated with LEN before MOR202, LEN 10 μM, MOR202 and MOR03207 15 μg/ml): 17.42 % dead cells and 16.17 % dead cells and 12.17 % dead cells
- % dead cells (raw data, Table 7a), Exp. 2 and 3 (NCI-H929 cells; PBMCs and NCI-H929 cells treated with LEN before MOR202, LEN 5 μM, MOR202 0.07 μg/ml, MOR03207 15 μg/ml): 14.09 % dead cells and 19.20 % dead cells
- % dead cells (raw data, Table 7a), Exp. 1 (NCI-H929 cells; PBMCs and NCI-H929 cells treated with LEN before MOR202, LEN 5 μM, MOR202 0.2 μg/ml (*), MOR03207 15 μg/ml): 17.81 % dead cells
- % dead cells, MOR03207 (15 μg/ml) + DMSO (Table 7a) (NCI-H929 cells; control group, PBMCs and NCI-H929 cells LEN-treated series, Exp. 1-3): 13.74 % dead cells and 18.27 % dead cells and 20.26 % dead cells
- % dead cells, MOR03207 (15 μg/ml) + DMSO (Table 8a) (NCI-H929 cells; control group, effector-only series, Exp. 1-3): 24.43 % dead cells and 19.52 % dead cells and 24.16 % dead cells
- % dead cells (raw data, Table 8a), Exp. 2 and 3 (NCI-H929 cells; only effector cells treated with LEN before MOR202, LEN 5 μM, MOR202 0.07 μg/ml, MOR03207 15 μg/ml): 27.10 % dead cells and 23.19 % dead cells
- % dead cells (raw data, Table 8a), Exp. 1 (NCI-H929 cells; only effector cells treated with LEN before MOR202, LEN 5 μM, MOR202 0.2 μg/ml (*), MOR03207 15 μg/ml): 17.07 % dead cells
